System: MS2 coat protein
Test: apparent KD of MS2 coat protein; higher = weaker reporter binding
Details: Eterna round: R107
Description: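 RNA-MaP round R107: designed RNA switches with theophylline, tryptophan, arginine or FMN aptamers are transcribed on-chip within common flanks. They are titrated with SNAP-549-labelled MS2 coat protein in RNA-MaP buffer (100 mM Tris pH 7.5, 80 mM KCl, 4 mM MgCl2), without ligand or with the indicated ligand. Median apparent KD per design.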

[1] = input ligand: theophylline 20 uM
[2] = input ligand: tryptophan 2.4 mM
[3] = input ligand: theophylline 2 mM

Sequence	apparent KD of MS2 coat protein (input ligand: arginine 13.2 mM) [µM]	apparent KD of MS2 coat protein [1] [µM]	apparent KD of MS2 coat protein [2] [µM]	apparent KD of MS2 coat protein (input ligand: none) [µM]	apparent KD of MS2 coat protein [3] [µM]
AACCGAGGCUAUCCUCUAAGAAAAUGUGAUACCAGAAUAAUUUUAUUCCCUUGGCAGCAUGACAUGAGGAUCACCCAUGUGUCUU [SSTheo A #6]	0.0736	0.131	0.138		
AACCGAGGCUAUCCUCUAAGACUAUGUGAUACCAGAAUAAUUUUAUUCCCUUGGCAGCAUGACAUGAGGAUCACCCAUGUCUCUU [SSTheo A #8]	0.021	0.0274	0.026		
AAGACAUGAGGAUCACCCAUGUGGAGGGAUACCAGCCUGUGUGUGGGCCCUUGGCAGCUUAAAUUUAAUUUAAUUAAAUAAAUUU [Same State - Theophylline A]	0.0276	0.0416	0.0349		
AAGACGGUCGGAAGGAGCGGUACAUGAGGAUCACCCAUGUACUCCUGGGCAUCCGUAGUGUGCCAGGUAGGUCGCCGAUUGCGGG [XArg-B14]	0.0128	0.0229	0.0153	0.0128	0.0166
AAGCCCAGGACGGCCGCCACUGUAAAAUGGUGGUUCGCCUGUAAGAACAUGAGGAUCACCCAUGUCAGGACCGGGUCCACGAGUU [theeternabot_exclusion_MS2_Trp_B_46]	0.0171	0.0238			0.0158
AAGCUGCCAAGAAGGUGAUCCAAAUGUGAUACCAGCUAGGAAACUAGCCCUUGGCAGCACAUGAGGAUCACCCAUGUAAUAAUAA [(T)'-(M)'-(T1)-(T2)-(M1)-(M2)_Design1_2/19/17]	0.0377	0.191	0.0483		
AAGCUUCGCAUAGGAAAACUAUGUGAAGCUCGAGGACCGGUACGGCCGCCACUCGUCCUCAACAUGAGGAUCACCCAUGUAAUAA [Mat - Exclusion - Trytophan A - D2]	0.0207	0.0286			0.0259
AAGGCACGAGACAUGAGGAUCACCCAUGUUCGAGGACCGGUACGGCCGCCACUCGGUGGACUCAUGGUAAAGCCGGUGAGCCAAA [AK 1.1 SS Trypt (A)]	0.018	0.0252			0.0225
AAGUAAACAUGAGCAAAGCUCAUGUGCGAAGGAGCGGCGGAAACGCCAGGUAGGUCGCGCACAUGAGCAUCAGCCAUGUGUGUCA [Omei Arginine B SS A v1]	0.0112	0.0898	0.0529	0.0379	0.0589
AAUAAACAUGAGGAUCACCCAUGUAGGGUGCGAGGACCGGUACGGCCGCCACUCGGGUGAAAACAUGAGGAUCACCCAUGUAAAA [Mat - Exclusion - Trytophan A - D23]	0.0611	0.185			0.22
AAUAAACAUGAGGAUCACCCAUGUUGUUGACGAGGACCGGUACGGCCGCCACUCGACAUGAGGAUCACCCAUGUUGUCACAUGAG [Same State Tryptophan A]	0.0731	0.19			0.256
AAUACCGGAUCGGCCGCCACUGGUUGGCCCUGUGUACAUGAGGAUCACCCAUGUCCAUCCCAGACCAGGACCGGGAUCUUUGUGU [Ingeraza]	0.0156	0.02			0.0185
AAUAGACAUGAGGAUCACCCAUGUAUGGAAGGAGCGGUGAAUAAGCCAGGUAGGUCGCCAGUGUGAGGGUUAUCUAUGUAAUAAA [#19 Exclusion - Arginine A]	0.0274	0.0416	0.0408	0.0384	0.0357
AAUCGUAAGGCGGCCGCCACUACACAUGAGGAUCACCCAUGUCUCGCAGGCUUGCGUUGGGAUAGUAGGACCGGGCCAGUAAUAA [Exclusion - Tryptophan B (Freestyle 14)]	0.0185	0.0288			0.0266
AAUCUGAUUGCGGCCGCCACUAAUUUUCCAUGAGUAUUGCAAUUACAUGAGGAUCACCCAUGUCAUAGGACCGGGCAUGACAUCU [theeternabot_sameState_MS2_Trp_B_45]	0.104	0.202			0.309
AAUGAGUGGUGGUCAAACAUGGGUGAUCAACGAGGACCGGUACGGCCGCCACUCGAUAACAUGAGGAUCACCCAUGUAAUAAUAA [|T'-M'-Trp-Ms2|_Design9]	0.0555	0.492			0.683
AAUGUAUGGCACAUGAGGAUCACCCAUGUGCGAGGACCGGUACGGCCGCCACUCGGUCAAGGGAUCUUACCUCUAUACAUUAAUG [XTryp A #22]	0.0106	0.0147			0.0119

Sequence	apparent KD of MS2 coat protein (input ligand: arginine 13.2 mM) [µM]	apparent KD of MS2 coat protein [1] [µM]	apparent KD of MS2 coat protein [2] [µM]	apparent KD of MS2 coat protein (input ligand: none) [µM]	apparent KD of MS2 coat protein [3] [µM]
AAUGUAUGGCACAUGAGGAUCACCCAUGUGCGAGGACCGGUACGGCCGCCACUCGGUCCUGGGAUCUUACAACUAUACAUUAAUG [XTryp A #20]	0.0103	0.0172			0.0164
AAUGUAUGGCACAUGAGGAUCACCCAUGUGCGAGGACCGGUACGGCCGCCACUCGGUCCUGGGAUCUUAUUACUAUACAUUAAUG [XTryp A #17]	0.0118	0.0157			0.0125
AAUUCCUCACAUGAGGAUCACCCAUGUGAAGGAGCGCCGAAUAAGGCAGGUAGGUCGCACAUGGAAACCGCUACGAAAGUAGCAA	0.0131	0.0648	0.0213	0.0205	0.0205
AAUUCCUCACAUGAGGAUCACCCAUGUGAAGGAGCGCCGAAUAAGGCAGGUAGGUCGCACAUGGAAACCGCUGCGAAAGCAGCAA [MAT - Exclusion Arginine A - Mod of Eli - D25]	0.021	0.0332	0.0245	0.0217	0.025
ACAAGUCCUCAUGAUACCAGCGAUGAGACAUAGUCUCAACAUGAGGAUCACCCAUGUAUUCGCCCUUGGCAGCAUACGGUUUUUG [Arleer]	0.0851	0.373	0.517		
ACACAUGAGGAUCACCCAUGUCCAAUAGAUACCAGUGAUACGGUGCACCCUUGGCAGCUGUUGCUGAGUGAUGGUUCCCUCGGAA [Same State Theophylline A GF4]	0.0486	0.138	0.112		
ACAUGAAGAACAGCGGUGGGCGCGCUCGAUACCAGUACUUUGAUUUACCCUUGGCAGCGACAUGAGGAUCACCCAUGUGAGAUGA [XTheo A #1]	0.0169	0.0224	0.0186		
ACAUGAGGAUCACCCAUGUAUGACUAUCCUCGAGGACCGGUACGGCCGCCACUCGAAGGAGUGGCUCGCGAGUGCGCACUUGCAA [5' end]	0.00987	0.0165	0.0115	0.0125	0.0136
ACAUGAGGAUCACCCAUGUAUUACCGGGAAGGAGCGCGUAAGGACGCAGGUAGGUCGCUCGGCGUCGUGCCGGAAGGCACGACGA [#1 Same State - Arginine A Attempt #22 (HarryS)]	0.0179	0.0498	0.0138	0.0136	0.0156
ACAUGAGGAUCACCCAUGUGAAGGCACGAUACCAGCUGAUCCCGUGGCCCUUGGCAGCGUCCGGUUUGGUCCGGCGGAUGAGACG [azamullin]	0.0196	0.0364	0.0235		
ACAUGAGGAUCACCCAUGUGGCGUCUUGAUACCAGACGAGAAGUAGUCCCUUGGCAGCAAAUACAUGAGGAUCACCCAUGUAGGA [cccmullin]	0.0166	0.0255	0.0243		
ACAUGAGGAUCACCCAUGUGUCCUCGAAAACGAGGACCGGUACGGCCGCCACUCGAAAUAAGCGACAAGCGAAAAGCUUGUCGCA [Mat - Exclusion - Trytophan A - D22]	0.0576	0.194	0.406	0.113	0.135
ACAUGAGGAUCACCCAUGUGUGUAAAUCCUCGAGGACCGGUACGGCCGCCACUCGAUUGAGUGUAAGUUGAAUGUAACAUUCAAC [whbob_SS_trypto A_2s9]	0.046	0.134			0.144
ACCGCGGUAUCGGCCGCCACUUGUGGGUUAAAUCUGGUACAUGAGGAUCACCCAUGUGUCUCCUCGAGGACCGGGAUAGCGUGAC [Geaner]	0.0977	0.168			0.211
ACCUGUACGAAAAGUGCAGGACACGGAAUACGAGGACCGGUACGGCCGCCACUCGGAUAAAACCUGAGGAUCACCCUGGUCCGUG [TrypAS 14 #AlternativeMS2 #Zipper #StaticStem]	0.0277	0.0435	0.0226	0.0246	0.0346
ACCUGUACGAAAAGUGCAGGACAUGAAUAACGAGGACCGGUACGGCCGCCACUCGGGUAAUAACCUGAGGAUCACCCGGGUCAUG [TrypAS 6 #AlternativeMS2 #Zipper #StaticStem]	0.111	0.211	0.0275	0.218	0.249
